Molecular target: T1, soluble bovine cation-independent mannose 6-phosphate receptor (CI-MPR), covalently conjugated to Cyanogen … (bovine, UniProt P08169 45-2313, limits assumed, covalently conjugated to Cyanogen bromide-activated-Sepharose 4B)
T1 construct: also called immobilized CI-MPR
Test: CI-MPR-affinity bead pull-down from lysates of GNPTAB-/- HeLa cells transfected with empty vector, WT α/β precursor or DS1 mutant; western blot (FIG. 2C)
Description: (FIG. 2C) Western blot of GNPTAB^{-/-} HeLa cells co-transfected with the expression plasmids for the indicated proteins along with empty vector, WT α/β precursor or the DS1 mutant cDNA. Cell lysates were incubated with CI-MPR-affinity beads and the binding of the various proteins was determined by probing the blot with the following antibodies: Renin—anti-HA; NPC2, GP, Lamp1 and Lamp2 with antibodies generated against the native protein.

T1 sequence (P08169 45-2313 limits assumed): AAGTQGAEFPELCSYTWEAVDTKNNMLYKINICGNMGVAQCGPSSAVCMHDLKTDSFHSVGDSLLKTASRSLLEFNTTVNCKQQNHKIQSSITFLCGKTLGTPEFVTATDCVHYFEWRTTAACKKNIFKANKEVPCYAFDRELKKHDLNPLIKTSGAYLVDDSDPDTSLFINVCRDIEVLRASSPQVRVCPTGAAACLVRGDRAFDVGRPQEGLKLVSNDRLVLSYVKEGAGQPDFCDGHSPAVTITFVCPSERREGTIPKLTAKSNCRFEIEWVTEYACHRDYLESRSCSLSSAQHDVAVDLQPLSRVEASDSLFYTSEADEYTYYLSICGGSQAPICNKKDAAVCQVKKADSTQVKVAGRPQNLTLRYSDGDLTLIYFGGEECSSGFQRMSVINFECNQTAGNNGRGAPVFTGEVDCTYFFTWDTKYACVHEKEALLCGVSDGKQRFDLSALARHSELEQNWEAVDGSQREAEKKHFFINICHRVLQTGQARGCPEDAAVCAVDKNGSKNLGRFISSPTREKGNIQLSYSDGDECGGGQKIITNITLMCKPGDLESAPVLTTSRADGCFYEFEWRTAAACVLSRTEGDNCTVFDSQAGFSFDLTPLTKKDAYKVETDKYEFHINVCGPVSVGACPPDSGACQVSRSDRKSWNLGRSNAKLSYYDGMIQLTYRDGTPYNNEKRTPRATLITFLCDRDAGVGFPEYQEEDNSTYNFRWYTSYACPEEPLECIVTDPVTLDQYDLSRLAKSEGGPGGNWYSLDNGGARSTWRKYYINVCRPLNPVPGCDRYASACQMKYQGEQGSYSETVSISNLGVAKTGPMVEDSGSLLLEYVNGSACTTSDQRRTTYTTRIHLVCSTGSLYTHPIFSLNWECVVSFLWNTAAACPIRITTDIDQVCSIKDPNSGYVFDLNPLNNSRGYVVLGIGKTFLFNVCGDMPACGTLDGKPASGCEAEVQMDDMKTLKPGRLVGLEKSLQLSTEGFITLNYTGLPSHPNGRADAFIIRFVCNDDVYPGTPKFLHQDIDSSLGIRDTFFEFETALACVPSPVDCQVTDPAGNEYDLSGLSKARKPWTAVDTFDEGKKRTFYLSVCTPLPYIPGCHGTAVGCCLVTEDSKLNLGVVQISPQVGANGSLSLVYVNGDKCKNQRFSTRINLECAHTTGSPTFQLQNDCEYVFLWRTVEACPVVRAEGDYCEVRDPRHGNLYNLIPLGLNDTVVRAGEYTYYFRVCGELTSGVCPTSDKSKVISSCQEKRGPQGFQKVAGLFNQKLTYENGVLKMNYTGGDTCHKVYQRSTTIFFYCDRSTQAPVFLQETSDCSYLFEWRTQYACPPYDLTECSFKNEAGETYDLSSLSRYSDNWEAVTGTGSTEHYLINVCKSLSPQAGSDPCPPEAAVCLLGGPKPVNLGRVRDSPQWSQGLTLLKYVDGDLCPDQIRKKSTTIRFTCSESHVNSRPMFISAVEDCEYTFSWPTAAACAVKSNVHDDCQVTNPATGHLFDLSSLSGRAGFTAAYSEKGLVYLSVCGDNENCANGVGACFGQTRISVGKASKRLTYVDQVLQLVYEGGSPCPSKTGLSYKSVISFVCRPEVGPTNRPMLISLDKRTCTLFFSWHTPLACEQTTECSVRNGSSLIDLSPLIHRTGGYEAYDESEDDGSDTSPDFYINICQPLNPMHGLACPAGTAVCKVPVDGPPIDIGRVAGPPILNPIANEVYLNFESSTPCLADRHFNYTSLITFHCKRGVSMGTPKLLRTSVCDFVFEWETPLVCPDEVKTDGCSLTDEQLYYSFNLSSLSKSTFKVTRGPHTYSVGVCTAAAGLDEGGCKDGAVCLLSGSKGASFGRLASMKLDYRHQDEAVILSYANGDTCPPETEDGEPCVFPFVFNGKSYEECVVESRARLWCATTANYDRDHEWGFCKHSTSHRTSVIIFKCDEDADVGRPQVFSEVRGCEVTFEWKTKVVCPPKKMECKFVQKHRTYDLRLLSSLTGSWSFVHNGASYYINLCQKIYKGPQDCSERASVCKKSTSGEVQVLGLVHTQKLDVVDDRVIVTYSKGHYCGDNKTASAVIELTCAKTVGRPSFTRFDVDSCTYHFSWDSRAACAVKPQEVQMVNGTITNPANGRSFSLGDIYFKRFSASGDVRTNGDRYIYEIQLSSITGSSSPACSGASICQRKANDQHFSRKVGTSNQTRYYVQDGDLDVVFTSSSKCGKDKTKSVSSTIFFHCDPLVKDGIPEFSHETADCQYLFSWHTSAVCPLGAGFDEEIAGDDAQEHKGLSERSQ

binding result: no binding
B1: Lamp1 (other, UniProt P11279 29-417, looked up)
chain: AMFMVKNGNGTACIMANFSAAFSVNYDTKSGPKNMTFDLPSDATVVLNRSSCGKENTSDPSLVIAFGRGHTLTLNFTRNATRYSVQLMSFVYNLSDTHLFPNASSKEIKTVESITDIRADIDKKYRCVSGTQVHMNNVTVTLHDATIQAYLSNSSFSRGETRCEQDRPSPTTAPPAPPSPSPSPVPKSPSVDKYNVSGTNGTCLLASMGLQLNLTYERKDNTTVTRLLNINPNKTSASGSCGAHLVTLELHSEGTTVLLFQFGMNASSSRFFLQGIQLNTILPDARDPAFKAANGSLRALQATVGNSYKCNAEEHVRVTKAFSVNIFKVWVQAFKVEGGQFGSVEECLLDENSMLIPIAVGGALAGLVLIVLIAYLVGRKRSHAGYQTI
